Starred links: 1 amine or outer side, 2 acyl side, 3 side chain; linkers in the order of their positions; H or OH if unused. Non-standard residues stand in square brackets, D forms with d. Groups on a side chain read outwards from the residue. No end group written: not given here. *: point of attachment. C18 diacid = O=C(O)CCCCCCCCCCCCCCCCC(=O)*; γGlu = O=C(O)[C@H](CCC(=O)[*:2])N[*:1]; Palmitoyl = CCCCCCCCCCCCCCCC(=O)*; AEEA = NCCOCCOCC(=O)O; Aib = CC(C)(N)C(=O)O
Target: human corticotropin-releasing factor 2α (CRF2 α receptor) (human), Q13324
Assay: cell-based or functional assay

Chain of human corticotropin-releasing factor 2α (CRF2 α receptor) (human), Q13324 (Q13324 20-411): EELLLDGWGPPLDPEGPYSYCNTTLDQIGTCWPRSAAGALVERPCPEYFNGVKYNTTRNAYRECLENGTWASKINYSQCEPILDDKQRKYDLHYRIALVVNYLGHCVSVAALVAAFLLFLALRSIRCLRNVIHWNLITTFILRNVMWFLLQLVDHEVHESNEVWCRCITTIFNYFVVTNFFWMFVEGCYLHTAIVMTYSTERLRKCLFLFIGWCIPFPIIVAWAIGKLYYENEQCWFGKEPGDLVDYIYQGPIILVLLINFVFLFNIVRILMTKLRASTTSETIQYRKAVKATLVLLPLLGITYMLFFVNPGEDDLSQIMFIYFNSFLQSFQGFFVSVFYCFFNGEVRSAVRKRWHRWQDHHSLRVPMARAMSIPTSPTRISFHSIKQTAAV

Binder | EC50 [nM], 0% HSA [nM] | EC50 [nM], 0.1% HSA [nM]
Ac-IVLSLD[dV]PIKLK([AEEA-AEEA-γGlu-C18 diacid])QILLEQARQK[Aib]QREQAEKNKQILEQV-NH2 (SMILES CC[C@H](C)[C@H](NC(C)=O)C(=O)N[C@H](C(=O)N[C@@H](CC(C)C)C(=O)N[C@@H](CO)C(=O)N[C@@H](CC(C)C)C(=O)N[C@@H](CC(=O)O)C(=O)N[C@@H](C(=O)N1CCC[C@H]1C(=O)N[C@H](C(=O)N[C@@H](CCCCN)C(=O)N[C@@H](CC(C)C)C(=O)N[C@@H](CCCCNC(=O)COCCOCCNC(=O)COCCOCCNC(=O)CC[C@H](NC(=O)CCCCCCCCCCCCCCCCC(=O)O)C(=O)O)C(=O)N[C@@H](CCC(N)=O)C(=O)N[C@H](C(=O)N[C@@H](CC(C)C)C(=O)N[C@@H](CC(C)C)C(=O)N[C@@H](CCC(=O)O)C(=O)N[C@@H](CCC(N)=O)C(=O)N[C@@H](C)C(=O)N[C@@H](CCCNC(=N)N)C(=O)N[C@@H](CCC(N)=O)C(=O)N[C@@H](CCCCN)C(=O)NC(C)(C)C(=O)N[C@@H](CCC(N)=O)C(=O)N[C@@H](CCCNC(=N)N)C(=O)N[C@@H](CCC(=O)O)C(=O)N[C@@H](CCC(N)=O)C(=O)N[C@@H](C)C(=O)N[C@@H](CCC(=O)O)C(=O)N[C@@H](CCCCN)C(=O)N[C@@H](CC(N)=O)C(=O)N[C@@H](CCCCN)C(=O)N[C@@H](CCC(N)=O)C(=O)N[C@H](C(=O)N[C@@H](CC(C)C)C(=O)N[C@@H](CCC(=O)O)C(=O)N[C@@H](CCC(N)=O)C(=O)N[C@H](C(N)=O)C(C)C)[C@@H](C)CC)[C@@H](C)CC)[C@@H](C)CC)C(C)C)C(C)C) [SEQ ID NO: 157] | 0.12 | 2.53
Ac-IVLSLD[dV]PIKLK([AEEA-AEEA-γGlu-C18 diacid])QILLEQERQK[Aib]QREQAEKNKQILEQV-NH2 (SMILES CC[C@H](C)[C@H](NC(C)=O)C(=O)N[C@H](C(=O)N[C@@H](CC(C)C)C(=O)N[C@@H](CO)C(=O)N[C@@H](CC(C)C)C(=O)N[C@@H](CC(=O)O)C(=O)N[C@@H](C(=O)N1CCC[C@H]1C(=O)N[C@H](C(=O)N[C@@H](CCCCN)C(=O)N[C@@H](CC(C)C)C(=O)N[C@@H](CCCCNC(=O)COCCOCCNC(=O)COCCOCCNC(=O)CC[C@H](NC(=O)CCCCCCCCCCCCCCCCC(=O)O)C(=O)O)C(=O)N[C@@H](CCC(N)=O)C(=O)N[C@H](C(=O)N[C@@H](CC(C)C)C(=O)N[C@@H](CC(C)C)C(=O)N[C@@H](CCC(=O)O)C(=O)N[C@@H](CCC(N)=O)C(=O)N[C@@H](CCC(=O)O)C(=O)N[C@@H](CCCNC(=N)N)C(=O)N[C@@H](CCC(N)=O)C(=O)N[C@@H](CCCCN)C(=O)NC(C)(C)C(=O)N[C@@H](CCC(N)=O)C(=O)N[C@@H](CCCNC(=N)N)C(=O)N[C@@H](CCC(=O)O)C(=O)N[C@@H](CCC(N)=O)C(=O)N[C@@H](C)C(=O)N[C@@H](CCC(=O)O)C(=O)N[C@@H](CCCCN)C(=O)N[C@@H](CC(N)=O)C(=O)N[C@@H](CCCCN)C(=O)N[C@@H](CCC(N)=O)C(=O)N[C@H](C(=O)N[C@@H](CC(C)C)C(=O)N[C@@H](CCC(=O)O)C(=O)N[C@@H](CCC(N)=O)C(=O)N[C@H](C(N)=O)C(C)C)[C@@H](C)CC)[C@@H](C)CC)[C@@H](C)CC)C(C)C)C(C)C) [SEQ ID NO: 158] | 0.42 | 5.63
IVLSLD[dV]PTKLK([γGlu-Palmitoyl])QKLLKQERQRKEREQAEKNKRILERV-NH2 (N-terminus assumed; SMILES CCCCCCCCCCCCCCCC(=O)N[C@@H](CCC(=O)NCCCC[C@H](NC(=O)[C@H](CC(C)C)NC(=O)[C@H](CCCCN)NC(=O)[C@@H](NC(=O)[C@@H]1CCCN1C(=O)[C@H](NC(=O)[C@H](CC(=O)O)NC(=O)[C@H](CC(C)C)NC(=O)[C@H](CO)NC(=O)[C@H](CC(C)C)NC(=O)[C@@H](NC(=O)[C@@H](N)[C@@H](C)CC)C(C)C)C(C)C)[C@@H](C)O)C(=O)N[C@@H](CCC(N)=O)C(=O)N[C@@H](CCCCN)C(=O)N[C@@H](CC(C)C)C(=O)N[C@@H](CC(C)C)C(=O)N[C@@H](CCCCN)C(=O)N[C@@H](CCC(N)=O)C(=O)N[C@@H](CCC(=O)O)C(=O)N[C@@H](CCCNC(=N)N)C(=O)N[C@@H](CCC(N)=O)C(=O)N[C@@H](CCCNC(=N)N)C(=O)N[C@@H](CCCCN)C(=O)N[C@@H](CCC(=O)O)C(=O)N[C@@H](CCCNC(=N)N)C(=O)N[C@@H](CCC(=O)O)C(=O)N[C@@H](CCC(N)=O)C(=O)N[C@@H](C)C(=O)N[C@@H](CCC(=O)O)C(=O)N[C@@H](CCCCN)C(=O)N[C@@H](CC(N)=O)C(=O)N[C@@H](CCCCN)C(=O)N[C@@H](CCCNC(=N)N)C(=O)N[C@H](C(=O)N[C@@H](CC(C)C)C(=O)N[C@@H](CCC(=O)O)C(=O)N[C@@H](CCCNC(=N)N)C(=O)N[C@H](C(N)=O)C(C)C)[C@@H](C)CC)C(=O)O) [SEQ ID NO: 18] | 0.03 | 

Next, values leading:

EC50 [nM], 0% HSA [nM] | EC50 [nM], 0.1% HSA [nM] | Binder
1.27 | 27.4 | Ac-IVLSLD[dV]PIKLK([AEEA-AEEA-γGlu-C18 diacid])QILLEQERQE[Aib]QREQAEKNKQILEQV-NH2 (SMILES CC[C@H](C)[C@H](NC(C)=O)C(=O)N[C@H](C(=O)N[C@@H](CC(C)C)C(=O)N[C@@H](CO)C(=O)N[C@@H](CC(C)C)C(=O)N[C@@H](CC(=O)O)C(=O)N[C@@H](C(=O)N1CCC[C@H]1C(=O)N[C@H](C(=O)N[C@@H](CCCCN)C(=O)N[C@@H](CC(C)C)C(=O)N[C@@H](CCCCNC(=O)COCCOCCNC(=O)COCCOCCNC(=O)CC[C@H](NC(=O)CCCCCCCCCCCCCCCCC(=O)O)C(=O)O)C(=O)N[C@@H](CCC(N)=O)C(=O)N[C@H](C(=O)N[C@@H](CC(C)C)C(=O)N[C@@H](CC(C)C)C(=O)N[C@@H](CCC(=O)O)C(=O)N[C@@H](CCC(N)=O)C(=O)N[C@@H](CCC(=O)O)C(=O)N[C@@H](CCCNC(=N)N)C(=O)N[C@@H](CCC(N)=O)C(=O)N[C@@H](CCC(=O)O)C(=O)NC(C)(C)C(=O)N[C@@H](CCC(N)=O)C(=O)N[C@@H](CCCNC(=N)N)C(=O)N[C@@H](CCC(=O)O)C(=O)N[C@@H](CCC(N)=O)C(=O)N[C@@H](C)C(=O)N[C@@H](CCC(=O)O)C(=O)N[C@@H](CCCCN)C(=O)N[C@@H](CC(N)=O)C(=O)N[C@@H](CCCCN)C(=O)N[C@@H](CCC(N)=O)C(=O)N[C@H](C(=O)N[C@@H](CC(C)C)C(=O)N[C@@H](CCC(=O)O)C(=O)N[C@@H](CCC(N)=O)C(=O)N[C@H](C(N)=O)C(C)C)[C@@H](C)CC)[C@@H](C)CC)[C@@H](C)CC)C(C)C)C(C)C) [SEQ ID NO: 159]
36 | 977 | Ac-IVLSLD[dV]PIKLK([AEEA-AEEA-γGlu-C18 diacid])QILLEQERQE[Aib]EREQAEKNEQILEQV-NH2 (SMILES CC[C@H](C)[C@H](NC(C)=O)C(=O)N[C@H](C(=O)N[C@@H](CC(C)C)C(=O)N[C@@H](CO)C(=O)N[C@@H](CC(C)C)C(=O)N[C@@H](CC(=O)O)C(=O)N[C@@H](C(=O)N1CCC[C@H]1C(=O)N[C@H](C(=O)N[C@@H](CCCCN)C(=O)N[C@@H](CC(C)C)C(=O)N[C@@H](CCCCNC(=O)COCCOCCNC(=O)COCCOCCNC(=O)CC[C@H](NC(=O)CCCCCCCCCCCCCCCCC(=O)O)C(=O)O)C(=O)N[C@@H](CCC(N)=O)C(=O)N[C@H](C(=O)N[C@@H](CC(C)C)C(=O)N[C@@H](CC(C)C)C(=O)N[C@@H](CCC(=O)O)C(=O)N[C@@H](CCC(N)=O)C(=O)N[C@@H](CCC(=O)O)C(=O)N[C@@H](CCCNC(=N)N)C(=O)N[C@@H](CCC(N)=O)C(=O)N[C@@H](CCC(=O)O)C(=O)NC(C)(C)C(=O)N[C@@H](CCC(=O)O)C(=O)N[C@@H](CCCNC(=N)N)C(=O)N[C@@H](CCC(=O)O)C(=O)N[C@@H](CCC(N)=O)C(=O)N[C@@H](C)C(=O)N[C@@H](CCC(=O)O)C(=O)N[C@@H](CCCCN)C(=O)N[C@@H](CC(N)=O)C(=O)N[C@@H](CCC(=O)O)C(=O)N[C@@H](CCC(N)=O)C(=O)N[C@H](C(=O)N[C@@H](CC(C)C)C(=O)N[C@@H](CCC(=O)O)C(=O)N[C@@H](CCC(N)=O)C(=O)N[C@H](C(N)=O)C(C)C)[C@@H](C)CC)[C@@H](C)CC)[C@@H](C)CC)C(C)C)C(C)C) [SEQ ID NO: 161]
8.56 | 28.9 | Ac-IVLSLD[dV]PIKLK([AEEA-AEEA-γGlu-C18 diacid])QILLEQERQE[Aib]EREQAETNKQILEQV-NH2 (SMILES CC[C@H](C)[C@H](NC(C)=O)C(=O)N[C@H](C(=O)N[C@@H](CC(C)C)C(=O)N[C@@H](CO)C(=O)N[C@@H](CC(C)C)C(=O)N[C@@H](CC(=O)O)C(=O)N[C@@H](C(=O)N1CCC[C@H]1C(=O)N[C@H](C(=O)N[C@@H](CCCCN)C(=O)N[C@@H](CC(C)C)C(=O)N[C@@H](CCCCNC(=O)COCCOCCNC(=O)COCCOCCNC(=O)CC[C@H](NC(=O)CCCCCCCCCCCCCCCCC(=O)O)C(=O)O)C(=O)N[C@@H](CCC(N)=O)C(=O)N[C@H](C(=O)N[C@@H](CC(C)C)C(=O)N[C@@H](CC(C)C)C(=O)N[C@@H](CCC(=O)O)C(=O)N[C@@H](CCC(N)=O)C(=O)N[C@@H](CCC(=O)O)C(=O)N[C@@H](CCCNC(=N)N)C(=O)N[C@@H](CCC(N)=O)C(=O)N[C@@H](CCC(=O)O)C(=O)NC(C)(C)C(=O)N[C@@H](CCC(=O)O)C(=O)N[C@@H](CCCNC(=N)N)C(=O)N[C@@H](CCC(=O)O)C(=O)N[C@@H](CCC(N)=O)C(=O)N[C@@H](C)C(=O)N[C@@H](CCC(=O)O)C(=O)N[C@H](C(=O)N[C@@H](CC(N)=O)C(=O)N[C@@H](CCCCN)C(=O)N[C@@H](CCC(N)=O)C(=O)N[C@H](C(=O)N[C@@H](CC(C)C)C(=O)N[C@@H](CCC(=O)O)C(=O)N[C@@H](CCC(N)=O)C(=O)N[C@H](C(N)=O)C(C)C)[C@@H](C)CC)[C@@H](C)O)[C@@H](C)CC)[C@@H](C)CC)C(C)C)C(C)C) [SEQ ID NO: 160]

— patent US12679878B2, “CRF2 receptor agonists and their use in therapy” (SANOFI, priority 2020, dated 2026)
